The values below come from article PMC9022596, “Convergent Evolution of Antibiotic Tolerance in Patients with Persistent Methicillin-Resistant Staphylococcus aureus Bacteremia” (Infection and Immunity, 2022).

One data set deals with O=C(O)CC(=O)C(=O)O. Put plainly: purified protein. The conditions noted are these: AcCoA fixed at 0.3 mM, 0.1 mM DTNB, 100 mM Tris-HCl pH 8.0, room temperature.
In data set [1] the test system is CC(=O)SCCNC(=O)CCNC(=O)[C@H](O)C(C)(C)COP(=O)(O)OP(=O)(O)OC[C@H]1O[C@@H](n2cnc3c(N)ncnc32)[C@H](O)[C@@H]1OP(=O)(O)O. Put plainly: purified protein. The conditions noted are these: OAA fixed at 0.5 mM, 0.1 mM DTNB, 100 mM Tris-HCl pH 8.0, room temperature.

For “S. aureus citrate synthase (CS, citZ) (Staphylococcus aureus subsp. aureus USA300)”, in the data set on O=C(O)CC(=O)C(=O)O, the Km is reported as 0.03 (95% CI 0.02 to 0.04) mM and the kcat is 30 (95% CI 28 to 32) s-1. Moreover, in data set [1], the Km is 0.29 (95% CI 0.25 to 0.32) mM and the kcat was 41 (95% CI 39 to 43) s-1.
